From publication PMC3176292, “Mutations in Protein-Binding Hot-Spots on the Hub Protein Smad3 Differentially Affect Its Protein Interactions and Smad3-Regulated Gene Expression” (PLoS ONE, 2011) come the findings set out here.

B1: Renilla luciferase-Smad3 C338A (natural protein, UniProt P84022 1-425, looked up)
chain: MSSILPFTPPIVKRLLGWKKGEQNGQEEKWCEKAVKSLVKKLKKTGQLDELEKAITTQNVNTKCITIPRSLDGRLQVSHRKGLPHVIYCRLWRWPDLHSHHELRAMELCEFAFNMKKDEVCVNPYHYQRVETPVLPPVLVPRHTEIPAEFPPLDDYSHSIPENTNFPAGIEPQSNIPETPPPGYLSEDGETSDHQMNHSMDAGSPNLSPNPMSPAHNNLDLQPVTYCEPAFWCSISYYELNQRVGETFHASQPSMTVDGFTDPSNSERFCLGLLSNVNRNAAVELTRRHIGRGVRLYYIGGEVFAECLSDSAIFVQSPNCNQRYGWHPATVCKIPPGANLKIFNNQEFAALLAQSVNQGFEAVYQLTRMCTIRMSFVKGWGAEYRRQTVTSTPCWIELHLNGPLQWLDKVLTQMGSPSIRCSSVS
notes: Smad3; source: HEK-293, transfected together with constitutively active Alk5, in lysate
B2: Renilla luciferase-Smad3 Q322A/Y324A (natural protein, UniProt P84022 1-425, looked up)
chain: MSSILPFTPPIVKRLLGWKKGEQNGQEEKWCEKAVKSLVKKLKKTGQLDELEKAITTQNVNTKCITIPRSLDGRLQVSHRKGLPHVIYCRLWRWPDLHSHHELRAMELCEFAFNMKKDEVCVNPYHYQRVETPVLPPVLVPRHTEIPAEFPPLDDYSHSIPENTNFPAGIEPQSNIPETPPPGYLSEDGETSDHQMNHSMDAGSPNLSPNPMSPAHNNLDLQPVTYCEPAFWCSISYYELNQRVGETFHASQPSMTVDGFTDPSNSERFCLGLLSNVNRNAAVELTRRHIGRGVRLYYIGGEVFAECLSDSAIFVQSPNCNARAGWHPATVCKIPPGCNLKIFNNQEFAALLAQSVNQGFEAVYQLTRMCTIRMSFVKGWGAEYRRQTVTSTPCWIELHLNGPLQWLDKVLTQMGSPSIRCSSVS
notes: as for B1
B3: Renilla luciferase-Smad3 P335A/P336A (natural protein, UniProt P84022 1-425, looked up)
chain: MSSILPFTPPIVKRLLGWKKGEQNGQEEKWCEKAVKSLVKKLKKTGQLDELEKAITTQNVNTKCITIPRSLDGRLQVSHRKGLPHVIYCRLWRWPDLHSHHELRAMELCEFAFNMKKDEVCVNPYHYQRVETPVLPPVLVPRHTEIPAEFPPLDDYSHSIPENTNFPAGIEPQSNIPETPPPGYLSEDGETSDHQMNHSMDAGSPNLSPNPMSPAHNNLDLQPVTYCEPAFWCSISYYELNQRVGETFHASQPSMTVDGFTDPSNSERFCLGLLSNVNRNAAVELTRRHIGRGVRLYYIGGEVFAECLSDSAIFVQSPNCNQRYGWHPATVCKIAAGCNLKIFNNQEFAALLAQSVNQGFEAVYQLTRMCTIRMSFVKGWGAEYRRQTVTSTPCWIELHLNGPLQWLDKVLTQMGSPSIRCSSVS
notes: as for B1
B4: Renilla luciferase-Smad3 W406A (natural protein, UniProt P84022 1-425, looked up)
chain: MSSILPFTPPIVKRLLGWKKGEQNGQEEKWCEKAVKSLVKKLKKTGQLDELEKAITTQNVNTKCITIPRSLDGRLQVSHRKGLPHVIYCRLWRWPDLHSHHELRAMELCEFAFNMKKDEVCVNPYHYQRVETPVLPPVLVPRHTEIPAEFPPLDDYSHSIPENTNFPAGIEPQSNIPETPPPGYLSEDGETSDHQMNHSMDAGSPNLSPNPMSPAHNNLDLQPVTYCEPAFWCSISYYELNQRVGETFHASQPSMTVDGFTDPSNSERFCLGLLSNVNRNAAVELTRRHIGRGVRLYYIGGEVFAECLSDSAIFVQSPNCNQRYGWHPATVCKIPPGCNLKIFNNQEFAALLAQSVNQGFEAVYQLTRMCTIRMSFVKGWGAEYRRQTVTSTPCWIELHLNGPLQALDKVLTQMGSPSIRCSSVS
notes: as for B1
B5: Renilla luciferase-Smad3 Y226A (natural protein, UniProt P84022 1-425, looked up)
chain: MSSILPFTPPIVKRLLGWKKGEQNGQEEKWCEKAVKSLVKKLKKTGQLDELEKAITTQNVNTKCITIPRSLDGRLQVSHRKGLPHVIYCRLWRWPDLHSHHELRAMELCEFAFNMKKDEVCVNPYHYQRVETPVLPPVLVPRHTEIPAEFPPLDDYSHSIPENTNFPAGIEPQSNIPETPPPGYLSEDGETSDHQMNHSMDAGSPNLSPNPMSPAHNNLDLQPVTACEPAFWCSISYYELNQRVGETFHASQPSMTVDGFTDPSNSERFCLGLLSNVNRNAAVELTRRHIGRGVRLYYIGGEVFAECLSDSAIFVQSPNCNQRYGWHPATVCKIPPGCNLKIFNNQEFAALLAQSVNQGFEAVYQLTRMCTIRMSFVKGWGAEYRRQTVTSTPCWIELHLNGPLQWLDKVLTQMGSPSIRCSSVS
notes: as for B1
B6: Renilla luciferase-Smad3 V356R (natural protein, UniProt P84022 1-425, looked up)
chain: MSSILPFTPPIVKRLLGWKKGEQNGQEEKWCEKAVKSLVKKLKKTGQLDELEKAITTQNVNTKCITIPRSLDGRLQVSHRKGLPHVIYCRLWRWPDLHSHHELRAMELCEFAFNMKKDEVCVNPYHYQRVETPVLPPVLVPRHTEIPAEFPPLDDYSHSIPENTNFPAGIEPQSNIPETPPPGYLSEDGETSDHQMNHSMDAGSPNLSPNPMSPAHNNLDLQPVTYCEPAFWCSISYYELNQRVGETFHASQPSMTVDGFTDPSNSERFCLGLLSNVNRNAAVELTRRHIGRGVRLYYIGGEVFAECLSDSAIFVQSPNCNQRYGWHPATVCKIPPGCNLKIFNNQEFAALLAQSRNQGFEAVYQLTRMCTIRMSFVKGWGAEYRRQTVTSTPCWIELHLNGPLQWLDKVLTQMGSPSIRCSSVS
notes: as for B1
B7: Renilla luciferase-Smad3 W326A (natural protein, UniProt P84022 1-425, looked up)
chain: MSSILPFTPPIVKRLLGWKKGEQNGQEEKWCEKAVKSLVKKLKKTGQLDELEKAITTQNVNTKCITIPRSLDGRLQVSHRKGLPHVIYCRLWRWPDLHSHHELRAMELCEFAFNMKKDEVCVNPYHYQRVETPVLPPVLVPRHTEIPAEFPPLDDYSHSIPENTNFPAGIEPQSNIPETPPPGYLSEDGETSDHQMNHSMDAGSPNLSPNPMSPAHNNLDLQPVTYCEPAFWCSISYYELNQRVGETFHASQPSMTVDGFTDPSNSERFCLGLLSNVNRNAAVELTRRHIGRGVRLYYIGGEVFAECLSDSAIFVQSPNCNQRYGAHPATVCKIPPGCNLKIFNNQEFAALLAQSVNQGFEAVYQLTRMCTIRMSFVKGWGAEYRRQTVTSTPCWIELHLNGPLQWLDKVLTQMGSPSIRCSSVS
notes: as for B1
B8: Renilla luciferase-Smad3 S254A (natural protein, UniProt P84022 1-425, looked up)
chain: MSSILPFTPPIVKRLLGWKKGEQNGQEEKWCEKAVKSLVKKLKKTGQLDELEKAITTQNVNTKCITIPRSLDGRLQVSHRKGLPHVIYCRLWRWPDLHSHHELRAMELCEFAFNMKKDEVCVNPYHYQRVETPVLPPVLVPRHTEIPAEFPPLDDYSHSIPENTNFPAGIEPQSNIPETPPPGYLSEDGETSDHQMNHSMDAGSPNLSPNPMSPAHNNLDLQPVTYCEPAFWCSISYYELNQRVGETFHASQPAMTVDGFTDPSNSERFCLGLLSNVNRNAAVELTRRHIGRGVRLYYIGGEVFAECLSDSAIFVQSPNCNQRYGWHPATVCKIPPGCNLKIFNNQEFAALLAQSVNQGFEAVYQLTRMCTIRMSFVKGWGAEYRRQTVTSTPCWIELHLNGPLQWLDKVLTQMGSPSIRCSSVS
notes: as for B1
B9: Renilla luciferase-Smad3 L340A (natural protein, UniProt P84022 1-425, looked up)
chain: MSSILPFTPPIVKRLLGWKKGEQNGQEEKWCEKAVKSLVKKLKKTGQLDELEKAITTQNVNTKCITIPRSLDGRLQVSHRKGLPHVIYCRLWRWPDLHSHHELRAMELCEFAFNMKKDEVCVNPYHYQRVETPVLPPVLVPRHTEIPAEFPPLDDYSHSIPENTNFPAGIEPQSNIPETPPPGYLSEDGETSDHQMNHSMDAGSPNLSPNPMSPAHNNLDLQPVTYCEPAFWCSISYYELNQRVGETFHASQPSMTVDGFTDPSNSERFCLGLLSNVNRNAAVELTRRHIGRGVRLYYIGGEVFAECLSDSAIFVQSPNCNQRYGWHPATVCKIPPGCNAKIFNNQEFAALLAQSVNQGFEAVYQLTRMCTIRMSFVKGWGAEYRRQTVTSTPCWIELHLNGPLQWLDKVLTQMGSPSIRCSSVS
notes: as for B1
B10: Renilla luciferase-Smad3 K341A (natural protein, UniProt P84022 1-425, looked up)
chain: MSSILPFTPPIVKRLLGWKKGEQNGQEEKWCEKAVKSLVKKLKKTGQLDELEKAITTQNVNTKCITIPRSLDGRLQVSHRKGLPHVIYCRLWRWPDLHSHHELRAMELCEFAFNMKKDEVCVNPYHYQRVETPVLPPVLVPRHTEIPAEFPPLDDYSHSIPENTNFPAGIEPQSNIPETPPPGYLSEDGETSDHQMNHSMDAGSPNLSPNPMSPAHNNLDLQPVTYCEPAFWCSISYYELNQRVGETFHASQPSMTVDGFTDPSNSERFCLGLLSNVNRNAAVELTRRHIGRGVRLYYIGGEVFAECLSDSAIFVQSPNCNQRYGWHPATVCKIPPGCNLAIFNNQEFAALLAQSVNQGFEAVYQLTRMCTIRMSFVKGWGAEYRRQTVTSTPCWIELHLNGPLQWLDKVLTQMGSPSIRCSSVS
notes: as for B1
B11: Renilla luciferase-Smad3 V224A (natural protein, UniProt P84022 1-425, looked up)
chain: MSSILPFTPPIVKRLLGWKKGEQNGQEEKWCEKAVKSLVKKLKKTGQLDELEKAITTQNVNTKCITIPRSLDGRLQVSHRKGLPHVIYCRLWRWPDLHSHHELRAMELCEFAFNMKKDEVCVNPYHYQRVETPVLPPVLVPRHTEIPAEFPPLDDYSHSIPENTNFPAGIEPQSNIPETPPPGYLSEDGETSDHQMNHSMDAGSPNLSPNPMSPAHNNLDLQPATYCEPAFWCSISYYELNQRVGETFHASQPSMTVDGFTDPSNSERFCLGLLSNVNRNAAVELTRRHIGRGVRLYYIGGEVFAECLSDSAIFVQSPNCNQRYGWHPATVCKIPPGCNLKIFNNQEFAALLAQSVNQGFEAVYQLTRMCTIRMSFVKGWGAEYRRQTVTSTPCWIELHLNGPLQWLDKVLTQMGSPSIRCSSVS
notes: as for B1
B12: Renilla luciferase-Smad3 E267A (natural protein, UniProt P84022 1-425, looked up)
chain: MSSILPFTPPIVKRLLGWKKGEQNGQEEKWCEKAVKSLVKKLKKTGQLDELEKAITTQNVNTKCITIPRSLDGRLQVSHRKGLPHVIYCRLWRWPDLHSHHELRAMELCEFAFNMKKDEVCVNPYHYQRVETPVLPPVLVPRHTEIPAEFPPLDDYSHSIPENTNFPAGIEPQSNIPETPPPGYLSEDGETSDHQMNHSMDAGSPNLSPNPMSPAHNNLDLQPVTYCEPAFWCSISYYELNQRVGETFHASQPSMTVDGFTDPSNSARFCLGLLSNVNRNAAVELTRRHIGRGVRLYYIGGEVFAECLSDSAIFVQSPNCNQRYGWHPATVCKIPPGCNLKIFNNQEFAALLAQSVNQGFEAVYQLTRMCTIRMSFVKGWGAEYRRQTVTSTPCWIELHLNGPLQWLDKVLTQMGSPSIRCSSVS
notes: as for B1

The test concerns the target T1, SIP1 Smad-binding domain (amino acids 315–487) on the 3xFlag-thioredoxin scaffold (UniProt Q9R0G7 315-487).
T1 construct: SIP1, amino acids 315–487; amplified from pACT2-SIP1-315-487 (from D. Huylebroeck), which I recall as a mouse clone; cloned into the RsrII site of pCI-3xFLAG-Trx; also called Sip1 315–487; TrxSIP1; source: HEK-293, transfected, in lysate
T1 sequence (looked up): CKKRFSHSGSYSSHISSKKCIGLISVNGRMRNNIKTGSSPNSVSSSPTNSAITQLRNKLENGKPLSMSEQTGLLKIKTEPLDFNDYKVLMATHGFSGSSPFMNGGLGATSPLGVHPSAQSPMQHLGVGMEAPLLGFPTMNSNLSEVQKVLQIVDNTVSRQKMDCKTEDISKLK
Kind of test: co-IP; LUMIER: Renilla luciferase-Smad3 and Flag-tagged partner co-expressed with constitutively active Alk5 in HEK-293; Flag protein captured from cleared lysate (TNE: 10 mM Tris-HCl pH 7.8, 150 mM NaCl, 1 mM EDTA, 1% Igepal CA-630) on anti-Flag 96-well plates, 2 h at 4 °C; co-precipitated Renilla luciferase activity, TrxGA background subtracted, percent of wild-type Smad3. Particulars: partners not purified.
Regarding B1, the “percent binding relative to wild-type Smad3” value turned out to be 44%.

Regarding B2, the “percent binding relative to wild-type Smad3” value stood at 162%.

Regarding B3, the “percent binding relative to wild-type Smad3” value came to 123%.

As to B4, the “percent binding relative to wild-type Smad3” value was found to be 15%.

As to B5, the “percent binding relative to wild-type Smad3” value is 7%.

On to B6, for which the “percent binding relative to wild-type Smad3” value was determined as 7%.

As for B7, the “percent binding relative to wild-type Smad3” value was 319%.

B8: the “percent binding relative to wild-type Smad3” value came out at 128%.

With B9, the “percent binding relative to wild-type Smad3” value is 159%.

On to B10, for which the “percent binding relative to wild-type Smad3” value came to 66%.

In the case of B11, the “percent binding relative to wild-type Smad3” value turned out to be 339%.

Turning to B12, the “percent binding relative to wild-type Smad3” value is 88%.
